Patent publication US20170158753A1 (INTEGRATED BIOTHERAPEUTICS, published 2017)
Where a chain is given by its changes, count along the chain named.

T1: glycoprotein from Marburg virus (MARV; Musoke isolate) (Marburg virus (MARV; Musoke isolate), UniProt P35253 19-648)
T1 sequence: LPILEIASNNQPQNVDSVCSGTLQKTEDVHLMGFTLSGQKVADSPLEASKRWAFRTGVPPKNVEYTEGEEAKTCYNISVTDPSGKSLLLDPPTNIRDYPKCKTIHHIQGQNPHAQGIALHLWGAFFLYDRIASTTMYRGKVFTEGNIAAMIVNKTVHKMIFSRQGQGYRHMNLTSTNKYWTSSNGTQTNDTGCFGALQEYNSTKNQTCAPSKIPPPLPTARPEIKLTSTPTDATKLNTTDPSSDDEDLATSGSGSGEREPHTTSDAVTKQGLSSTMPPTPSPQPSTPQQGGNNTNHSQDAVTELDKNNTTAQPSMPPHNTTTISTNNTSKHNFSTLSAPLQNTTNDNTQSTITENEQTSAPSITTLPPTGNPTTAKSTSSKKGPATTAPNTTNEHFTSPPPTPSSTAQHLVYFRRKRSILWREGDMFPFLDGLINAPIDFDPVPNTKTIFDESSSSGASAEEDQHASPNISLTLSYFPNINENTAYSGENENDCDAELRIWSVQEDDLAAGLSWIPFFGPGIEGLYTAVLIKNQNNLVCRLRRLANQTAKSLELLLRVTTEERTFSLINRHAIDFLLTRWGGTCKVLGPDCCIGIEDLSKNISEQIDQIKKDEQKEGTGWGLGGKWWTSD

T2: glycoprotein from Sudan ebolavirus (SUDV) (Sudan ebolavirus (SUDV), UniProt Q66814 33-650)
T2 sequence: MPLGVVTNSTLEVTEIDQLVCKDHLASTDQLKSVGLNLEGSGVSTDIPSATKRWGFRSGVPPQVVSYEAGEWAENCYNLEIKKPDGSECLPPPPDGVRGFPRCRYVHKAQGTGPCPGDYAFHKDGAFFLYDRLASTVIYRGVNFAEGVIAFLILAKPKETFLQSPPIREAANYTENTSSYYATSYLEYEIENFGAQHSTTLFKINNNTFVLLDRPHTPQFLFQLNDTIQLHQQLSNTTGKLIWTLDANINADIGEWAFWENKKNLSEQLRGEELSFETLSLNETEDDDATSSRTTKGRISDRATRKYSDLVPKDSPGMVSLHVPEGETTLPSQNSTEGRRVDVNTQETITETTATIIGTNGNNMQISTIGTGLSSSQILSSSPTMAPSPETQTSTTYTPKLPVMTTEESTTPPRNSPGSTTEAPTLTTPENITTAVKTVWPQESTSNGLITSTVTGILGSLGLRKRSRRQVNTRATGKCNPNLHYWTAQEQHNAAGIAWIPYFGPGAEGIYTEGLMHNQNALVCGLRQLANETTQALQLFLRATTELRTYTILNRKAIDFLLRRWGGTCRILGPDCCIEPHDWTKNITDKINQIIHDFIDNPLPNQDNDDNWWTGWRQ

T3: EBOV soluble GP (sGP) (Ebola virus (EBOV), UniProt P60170 33-324)
T3 sequence: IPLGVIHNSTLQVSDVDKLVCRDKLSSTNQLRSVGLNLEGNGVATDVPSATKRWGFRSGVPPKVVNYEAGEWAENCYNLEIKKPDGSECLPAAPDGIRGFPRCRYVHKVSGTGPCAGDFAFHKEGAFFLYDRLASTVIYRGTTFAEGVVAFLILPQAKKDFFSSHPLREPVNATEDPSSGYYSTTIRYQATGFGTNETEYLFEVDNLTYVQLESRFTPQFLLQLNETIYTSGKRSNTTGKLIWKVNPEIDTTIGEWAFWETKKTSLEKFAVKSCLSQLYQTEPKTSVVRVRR

T4: glycoprotein from Reston ebolavirus (RESTV) (Reston ebolavirus (RESTV), UniProt Q66799 34-651)
T4 sequence: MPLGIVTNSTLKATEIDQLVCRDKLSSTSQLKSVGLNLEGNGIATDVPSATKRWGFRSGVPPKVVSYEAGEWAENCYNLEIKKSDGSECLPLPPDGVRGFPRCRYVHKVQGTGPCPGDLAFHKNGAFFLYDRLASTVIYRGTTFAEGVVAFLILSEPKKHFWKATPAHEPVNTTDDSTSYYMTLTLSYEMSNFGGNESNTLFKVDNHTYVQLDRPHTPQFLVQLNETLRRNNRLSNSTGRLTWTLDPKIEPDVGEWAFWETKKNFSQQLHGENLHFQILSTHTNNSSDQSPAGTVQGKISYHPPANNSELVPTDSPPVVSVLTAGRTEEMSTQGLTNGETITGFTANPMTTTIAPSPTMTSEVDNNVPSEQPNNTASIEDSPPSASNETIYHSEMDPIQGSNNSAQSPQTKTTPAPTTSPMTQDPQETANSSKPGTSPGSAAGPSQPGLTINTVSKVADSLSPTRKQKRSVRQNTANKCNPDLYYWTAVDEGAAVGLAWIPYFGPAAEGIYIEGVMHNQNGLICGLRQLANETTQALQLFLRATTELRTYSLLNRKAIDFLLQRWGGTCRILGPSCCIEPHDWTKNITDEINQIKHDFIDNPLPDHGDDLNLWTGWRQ

B1: m16G8 (antibody, V domains shown)
VH: EVQLQESGPGLVKPGASVKISCKASGYSFTGYYMNWVKQSPEKSLEWIGEINPSTGGTTYNQKFKAKATLTVDKSSSTAYMQLKSLTSEDSAVYYCVRYSHYYGSGSWYFDVWGTGTTVTVSS
VL: DIQMTQSPASLSASVGETVTITCRASENIYSNLAWYQQKQGKSPQLLVNAATNLADGVPSRFSGSGSGTQFSLKINSLQPEDFGSYYCQHFYVTPYMFGSGTKLEIKR
B2: m2E4 (antibody, V domains shown)
VH: B1 VH with G10E
VL: B1 VL with M97T
B3: m8C4 (antibody, V domains shown)
VH: EVQLQESGPELKKPGETVKISCKASGYTFTTYGMSWVKQAPGKGLKWMGRINTYSGVPTYADEFKGRFAFSLENSASTAYLQINNLKNEDTATYFCARGDGGHWFANWGQGTLVTVSA
VL: DIQMTQSPSSLSASLGGKVTITCKASQDINKNIAWYQHKPGKGPRLLIWYKSALQPGIPSRFSGSGSGRDYSFSISNLEPEDIATYSCLQYDNLPPTFGGGTKLEIKR
B4: m21B2 (antibody, V domains shown)
VH: EVQLQESGAELVRPGASVTLSCKTSGYTFTDYEMHWVKQTPVHGLEWIGAIDPETGGTAYNQKFKGKATLTADKSSSTAYMELSRLTSEDSAVYYCTGNYATDYWGQGTSVTVSS
VL: DIVMSQSPSSLAVSAGEKVTMSCKSSQSLFNSRSRKNYLAWYQLKPGQSPKLLIYWASTRESGVPDRFTGSGSGTDFTLTISSVQAEDLAVYYCKQSNYLWTFGGGTKLEIKR
B5: m17C6 (antibody, V domains shown)
VH: EVQLQESGPGLVQPSQSLSITCTVSGFSLTSYGVHWVRQSPGKGLEWLGVIWSGGSTDYNAAFISRLSISKDNSKSQVFFKMNSLQADDTAIYYCARNWFDYDNYYSMDYWGQGTSVTVSS
VL: DIQMTQTTSSLSASLGDRVTISCRASQDISNYLNWYQQKPDGTVKLLIYYTSRLHSGVPSRFSGSGSGTDFSLTISNQEPEDIATYYCQQYSNLPWTFGGGTKLEIKR
B6: m2D8 (antibody, V domains shown)
VH: EVQLQESGGELVRPGTSVKISCKASGYTFTNFWLGWIKERPGHGLEWIGDIYPGGHYTNYNENFKGKATLTADTSSNTAYMQVSSLTSEDSAVYFCFTQYYDMDYWGQGTSVTVSS
VL: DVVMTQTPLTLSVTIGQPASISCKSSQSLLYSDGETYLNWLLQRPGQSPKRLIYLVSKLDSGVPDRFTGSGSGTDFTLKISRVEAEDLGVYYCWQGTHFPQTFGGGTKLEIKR

Legend:
[1] = target: T1, glycoprotein from Marburg virus (MARV; …); test: summary of reactivity by any method (ELISA, Western blot, BIACORE)
[2] = target: T2, glycoprotein from Sudan ebolavirus …; test: as above
EBOV soluble GP (sGP) = target: T3, EBOV soluble GP (sGP); test: ELISA on EBOV soluble GP (sGP), OD650 against nM mAb
[3] = target: T4, glycoprotein from Reston ebolavirus …; test: summary of reactivity by any method (ELISA, Western blot, BIACORE)

Binder | binding result [1] | binding result [2] | binding result (EBOV soluble GP (sGP)) | binding result [3] | EC50 (EBOV soluble GP (sGP)) [nM]
B1 | no binding | binds | no binding (tested: about 67 nM (last point; axis to 100 nM)) |  | 
B2 | no binding |  |  |  | 
B3 | no binding |  |  | no binding | 10.3
B4 | binds |  |  |  | 
B5 |  | binds |  |  | 0.4
B6 | binds | binds |  |  | 
